Common to all, as to experiment: SPR, KD relative to WT C2;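 also: biacore SPR at 37 °C, anti-C2 mAbs captured on anti-human IgG chips with alanine or serine point mutants of C2 as analyte, KD from 1:1 fit compared with wild-type C2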
Experiment [1] deals with T1, human C2 K244A (human, UniProt P06681 21-752).
T1 sequence: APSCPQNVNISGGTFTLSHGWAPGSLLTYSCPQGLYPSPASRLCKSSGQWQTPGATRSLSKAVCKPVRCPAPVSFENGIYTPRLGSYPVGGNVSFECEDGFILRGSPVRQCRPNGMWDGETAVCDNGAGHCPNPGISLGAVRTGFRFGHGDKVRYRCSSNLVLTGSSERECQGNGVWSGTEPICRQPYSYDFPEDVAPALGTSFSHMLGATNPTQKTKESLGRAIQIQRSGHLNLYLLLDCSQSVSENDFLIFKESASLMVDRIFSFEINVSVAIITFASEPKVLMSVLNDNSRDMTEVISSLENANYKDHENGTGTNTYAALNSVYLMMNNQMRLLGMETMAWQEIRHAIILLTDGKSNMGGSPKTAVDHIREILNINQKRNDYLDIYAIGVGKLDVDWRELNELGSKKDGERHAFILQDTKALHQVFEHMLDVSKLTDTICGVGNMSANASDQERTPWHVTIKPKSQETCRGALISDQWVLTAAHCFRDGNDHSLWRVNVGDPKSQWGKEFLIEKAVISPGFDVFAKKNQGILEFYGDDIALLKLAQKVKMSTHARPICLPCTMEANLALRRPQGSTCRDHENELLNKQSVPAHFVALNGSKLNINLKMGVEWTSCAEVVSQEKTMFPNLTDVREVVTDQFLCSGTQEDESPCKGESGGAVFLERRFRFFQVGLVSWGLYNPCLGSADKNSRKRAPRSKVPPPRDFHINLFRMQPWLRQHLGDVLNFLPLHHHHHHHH

In experiment [2] the target is T2, human C2 D282A (human, UniProt P06681 21-752).
T2 sequence: T1 sequence with A224K, D262A

Experiment [3] concerns the target T3, human C2 R434A (human, UniProt P06681 21-752).
T3 sequence: T1 sequence with A224K, R414A

In experiment [4] the target is T4, human C2 G466A (human, UniProt P06681 21-752).
T4 sequence: T1 sequence with A224K, G446A

This passage reports Fold diff results from patent US20220332804A1 (CSL INNOVATION, published 2022).

Numbering of substitutions follows the chain as printed.

B1: RF16-242 (antibody, human IgG4 S228P, lambda, V domains shown)
VH: EVQLLQSGAEVKKPGESLKISCKGSGYSFTSYWIGWVRQMPGKGLEWMGIIYPGDSDTRYSPSFQGQVTISADKSISTAYLQWSSLKASDTAMYYCARRGHYGDYFDYWGQGTLVTVSS
VL: SYELTQPPSVSVSPGQTARITCSGDALPKKYAYWYHQKSGQAPVLVIYEDRRRPSEIPERFSGSSSGTMATLTITGAQVEDEGVYFCYSRDRAGNQRVFGGGTQLTVLG
notes: pH-dependent anti-C2 antibody from a phage display library
Consider B1, for which the Fold diff in experiment [1] is 4 fold; in experiment [2], 1 fold; in experiment [3], 14 fold; in experiment [4], 4 fold.
